# From the supplement of paper PMC10567573
# B1: ZNF449 (parent)
# chain: EPHKCPECGKRFLRSSDLYRHQRL
# Variants of: B1
# Test: protein stability index of a GFP-peptide fusion (GPS, HEK-293T) (PSI 1-6); higher = more stable
# Conditions: c terminus: a fixed tail appended
# 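Also: lentivirally expressed fusions sorted by FACS into six bins by GFP to DsRed ratio, PSI derived from sequencing read proportions per bin multiplied by bin number.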
row,Variant,protein stability index
1,EPHDCPECGKRFLRSSDLYRHQRL [K4D],4.36
2,EPHNCPECGKRFLRSSDLYRHQRL [K4N],4.09
3,EPHICPECGKRFLRSSDLYRHQRL [K4I],4.71
4,EPHECPECGKRFLRSSDLYRHQRL [K4E],4.73
5,EPHCCPECGKRFLRSSDLYRHQRL [K4C],3.86
6,EPHGCPECGKRFLRSSDLYRHQRL [K4G],3.68
7,EPHMCPECGKRFLRSSDLYRHQRL [K4M],4.7
8,EPHHCPECGKRFLRSSDLYRHQRL [K4H],4.09
9,EPHYCPECGKRFLRSSDLYRHQRL [K4Y],4.47
10,EPHACPECGKRFLRSSDLYRHQRL [K4A],4.5
11,EPHRCPECGKRFLRSSDLYRHQRL [K4R],3.71
12,EPHPCPECGKRFLRSSDLYRHQRL [K4P],3.42
13,EPHLCPECGKRFLRSSDLYRHQRL [K4L],4.49
14,EPHQCPECGKRFLRSSDLYRHQRL [K4Q],4.57
15,EPHSCPECGKRFLRSSDLYRHQRL [K4S],4.13
16,EPHTCPECGKRFLRSSDLYRHQRL [K4T],4.46
17,EPHVCPECGKRFLRSSDLYRHQRL [K4V],4.7
18,EPHFCPECGKRFLRSSDLYRHQRL [K4F],3.98
19,EPHWCPECGKRFLRSSDLYRHQRL [K4W],3.65
20,EPHKRPECGKRFLRSSDLYRHQRL [C5R],3.14
21,EPHKPPECGKRFLRSSDLYRHQRL [C5P],3.07
22,EPHKTPECGKRFLRSSDLYRHQRL [C5T],2.79
23,EPHKIPECGKRFLRSSDLYRHQRL [C5I],3.26
24,EPHKWPECGKRFLRSSDLYRHQRL [C5W],3.01

row,Variant,protein stability index
1,EPHKDPECGKRFLRSSDLYRHQRL [C5D],3.69
2,EPHKAPECGKRFLRSSDLYRHQRL [C5A],3.69
3,EPHKGPECGKRFLRSSDLYRHQRL [C5G],2.63
4,EPHKKPECGKRFLRSSDLYRHQRL [C5K],4
5,EPHKQPECGKRFLRSSDLYRHQRL [C5Q],3.6
6,EPHKMPECGKRFLRSSDLYRHQRL [C5M],3.06
7,EPHKLPECGKRFLRSSDLYRHQRL [C5L],3.3
8,EPHKFPECGKRFLRSSDLYRHQRL [C5F],2.5
9,EPHKNPECGKRFLRSSDLYRHQRL [C5N],3.41
10,EPHKHPECGKRFLRSSDLYRHQRL [C5H],3.19
11,EPHKSPECGKRFLRSSDLYRHQRL [C5S],3.44
12,EPHKEPECGKRFLRSSDLYRHQRL [C5E],3.56
13,EPHKVPECGKRFLRSSDLYRHQRL [C5V],2.87
14,EFHKCPECGKRFLRSSDLYRHQRL [P2F],3.17
15,EGHKCPECGKRFLRSSDLYRHQRL [P2G],3.81
16,ELHKCPECGKRFLRSSDLYRHQRL [P2L],3.63
17,EVHKCPECGKRFLRSSDLYRHQRL [P2V],3.02
18,EHHKCPECGKRFLRSSDLYRHQRL [P2H],3.95
19,ERHKCPECGKRFLRSSDLYRHQRL [P2R],3.54
20,ETHKCPECGKRFLRSSDLYRHQRL [P2T],3.52
21,EDHKCPECGKRFLRSSDLYRHQRL [P2D],4
22,EIHKCPECGKRFLRSSDLYRHQRL [P2I],3.18
23,ESHKCPECGKRFLRSSDLYRHQRL [P2S],4.41
24,EEHKCPECGKRFLRSSDLYRHQRL [P2E],3.42

row,Variant,protein stability index
1,ECHKCPECGKRFLRSSDLYRHQRL [P2C],3.58
2,EYHKCPECGKRFLRSSDLYRHQRL [P2Y],3.21
3,ENHKCPECGKRFLRSSDLYRHQRL [P2N],3.37
4,EQHKCPECGKRFLRSSDLYRHQRL [P2Q],3.53
5,EMHKCPECGKRFLRSSDLYRHQRL [P2M],3.38
6,EKHKCPECGKRFLRSSDLYRHQRL [P2K],3.57
7,EAHKCPECGKRFLRSSDLYRHQRL [P2A],3.5
8,EWHKCPECGKRFLRSSDLYRHQRL [P2W],3.22
9,EPGKCPECGKRFLRSSDLYRHQRL [H3G],3.02
10,EPDKCPECGKRFLRSSDLYRHQRL [H3D],3.23
11,EPFKCPECGKRFLRSSDLYRHQRL [H3F],4.09
12,EPWKCPECGKRFLRSSDLYRHQRL [H3W],4
13,EPKKCPECGKRFLRSSDLYRHQRL [H3K],3.23
14,EPTKCPECGKRFLRSSDLYRHQRL [H3T],3.9
15,EPSKCPECGKRFLRSSDLYRHQRL [H3S],2.97
16,EPIKCPECGKRFLRSSDLYRHQRL [H3I],4.1
17,EPAKCPECGKRFLRSSDLYRHQRL [H3A],3.25
18,EPPKCPECGKRFLRSSDLYRHQRL [H3P],3.33
19,EPQKCPECGKRFLRSSDLYRHQRL [H3Q],3.31
20,EPRKCPECGKRFLRSSDLYRHQRL [H3R],3.29
21,EPCKCPECGKRFLRSSDLYRHQRL [H3C],3.58
22,EPNKCPECGKRFLRSSDLYRHQRL [H3N],4.49
23,EPYKCPECGKRFLRSSDLYRHQRL [H3Y],4.7
24,EPVKCPECGKRFLRSSDLYRHQRL [H3V],3.72

row,Variant,protein stability index
1,EPEKCPECGKRFLRSSDLYRHQRL [H3E],2.99
2,EPMKCPECGKRFLRSSDLYRHQRL [H3M],3.79
3,EPLKCPECGKRFLRSSDLYRHQRL [H3L],4.89
4,HPHKCPECGKRFLRSSDLYRHQRL [E1H],3.45
5,YPHKCPECGKRFLRSSDLYRHQRL [E1Y],3.3
6,PPHKCPECGKRFLRSSDLYRHQRL [E1P],3.19
7,FPHKCPECGKRFLRSSDLYRHQRL [E1F],2.93
8,DPHKCPECGKRFLRSSDLYRHQRL [E1D],4.06
9,SPHKCPECGKRFLRSSDLYRHQRL [E1S],2.73
10,QPHKCPECGKRFLRSSDLYRHQRL [E1Q],3.12
11,IPHKCPECGKRFLRSSDLYRHQRL [E1I],2.6
12,TPHKCPECGKRFLRSSDLYRHQRL [E1T],2.6
13,GPHKCPECGKRFLRSSDLYRHQRL [E1G],3.13
14,APHKCPECGKRFLRSSDLYRHQRL [E1A],2.84
15,WPHKCPECGKRFLRSSDLYRHQRL [E1W],3.2
16,RPHKCPECGKRFLRSSDLYRHQRL [E1R],3.37
17,MPHKCPECGKRFLRSSDLYRHQRL [E1M],2.89
18,KPHKCPECGKRFLRSSDLYRHQRL [E1K],2.79
19,VPHKCPECGKRFLRSSDLYRHQRL [E1V],2.67
20,CPHKCPECGKRFLRSSDLYRHQRL [E1C],2.14
21,NPHKCPECGKRFLRSSDLYRHQRL [E1N],2.83
22,LPHKCPECGKRFLRSSDLYRHQRL [E1L],2.81
